Assay results: patent publication US20130102009A1, “SIRTUIN ACTIVATORS AND ACTIVATION ASSAYS” (priority 2010, published 2013)

How the values were obtained:
Assay in all cases: Steady-state kinetic parameters for SIRT1 substrates (PNC1-GDH-coupled assay)
Type in all cases: biochemical, human
Details in all cases: other: 25° C., pH 7.5, [NAD+]o = 2 mM, [SIRT1]o 50-1,000 nM
[1] = substrate: CC(=O)NCCCC[C@H](NC(=O)[C@H](CCCCN)NC(=O)[C@H](Cc1c[nH]cn1)NC(=O)[C@H](CCCNC(=N)N)NC(C)=O)C(N)=O
Procedure: (§1) All peptides were prepared by BioPeptide (San Diego, Calif.) and shown to be at least 95% pure by analytical HPLC analysis. Bovine glutamate dehydrogenase (GDH), α-ketoglutarate, NADH and NAD^+ were from Sigma Chemical Company. Full-length, human SIRT1 and the truncated version used for biophysical studies SIRT1(183-664) were prepared as described previously, and shown to have equivalent kinetic properties (Milne et al. (2007) Nature 450, 712-716). The nicotinamidase PNC1 was prepared as described by Denu and colleagues (Smith et al. (2009) Anal Biochem 394, 101-109).
(§2) To determine the interaction of STACs with SIRT1 two kinetic methods were employed. One, which was used for TAMRA-peptide, desTAMRA-peptide, des(biotin,TAMRA)-peptide, and p53-20 mer, used a previously described mass spectroscopic method for detection of peptide reaction products (Milne et al. (2007) Nature 450, 712-716). The other, used with peptides of general structure Ac-Arg-His-Lys-Lys^Ac-X, used a continuous, enzyme-coupled method reported previously (Smith et al. (2009) Anal Biochem 394, 101-109), in which the SRT1 product nicotinamide is first converted into nicotinic acid and ammonia by the action of PNC1, and the ammonia then used by GDH to convert α-ketoglutarate into glutamate. This reaction occurs with oxidation of NADH to NAD^+ which is accompanied by a change in absorbance at 340 nm (Δε340=−6,200 M^−1 cm^−1).
(§3) The kinetic experiments used to characterize activators were run on a Perkin Elmer Lambda 25 spectrophotometer equipped with a water-jacketed, eight-cell changer maintained at 25° C. In a typical kinetic experiment, all components of the reaction solution except SIRT1 were added to a 1 mL cuvette and allowed to reach thermal equilibrium. Final concentrations of the coupling system components were: 1 μM PNC1, 0.23 mM NADH, 3.4 mM α-ketoglutarate, and 20 U/mL bovine GDH. This solution also contained peptide substrate, NAD^.0., and activator, at concentrations indicated in the text. The final DMSO concentration was kept constant at 1%, and the buffer used in these experiments was 50 mM HEPES, 150 mM NaCl, pH 7.5. While the system was reaching thermal equilibrium, the absorbance was monitored to provide an accurate estimate of the background rate, which was subtracted from the reaction rate after the addition of SIRT1.
(§4) The parameters reported in this table were all determined using the PNC1-GDH-coupled assay. Kinetic parameters for the four 20 mers were also estimated using the mass spectroscopy-based assay first described by Milne et al. ((2007) Nature 450, 712-716) and agree with those reported in Table 3.

[2] = substrate: CCCC[C@H](NC(=O)[C@H](CCCCNC(C)=O)NC(=O)[C@H](CO)NC(=O)[C@H](Cc1c[nH]cn1)NC(=O)[C@H](CO)NC(=O)[C@H](CO)NC(=O)[C@@H](NC(=O)[C@H](CO)NC(=O)[C@H](CCC(N)=O)NC(=O)CNC(=O)[C@H](CCCCNC(=O)CCCC[C@@H]1SC[C@@H]2NC(=O)N[C@@H]21)NC(=O)[C@H](CCC(=O)O)NC(=O)[C@H](CCC(=O)O)NC(C)=O)[C@@H](C)O)C(=O)N[C@@H](CO)C(=O)N[C@H](C(=O)N[C@@H](CCC(=O)O)C(=O)NCC(=O)N[C@@H](CCCCN)C(=O)N[C@@H](CCC(=O)O)C(=O)N[C@@H](CCC(=O)O)C(N)=O)[C@@H](C)O
Procedure: as §1, §2, §3, §4

[3] = substrate: CC(=O)NCCCC[C@H](NC(=O)[C@H](CCCCN)NC(=O)[C@H](Cc1c[nH]cn1)NC(=O)[C@H](CCCNC(=N)N)NC(C)=O)C(=O)N[C@@H](Cc1c[nH]c2ccccc12)C(N)=O
Procedure: as §1, §2, §3, §4

[4] = substrate: CC(=O)NCCCC[C@H](NC(=O)[C@H](CCCCN)NC(=O)[C@H](Cc1c[nH]cn1)NC(=O)[C@H](CCCNC(=N)N)NC(C)=O)C(=O)N[C@@H](Cc1ccccc1)C(N)=O
Procedure: as §1, §2, §3, §4

[5] = substrate: CC(=O)NCCCC[C@H](NC(=O)[C@H](CCCCN)NC(=O)[C@H](Cc1c[nH]cn1)NC(=O)[C@H](CCCNC(=N)N)NC(C)=O)C(=O)N[C@@H](C)C(N)=O
Procedure: as §1, §2, §3, §4

[6] = substrate: CC(=O)NCCCC[C@H](NC(=O)[C@H](CCCCN)NC(=O)[C@H](Cc1c[nH]cn1)NC(=O)[C@H](CCCNC(=N)N)NC(C)=O)C(=O)Nc1ccc2c(C)cc(=O)oc2c1
Procedure: as §1, §2, §3, §4

B1: SIRT1 (Homo sapiens) (protein)
chain: MADEAALALQPGGSPSAAGADREAASSPAGEPLRKRPRRDGPGLERSPGEPGGAAPEREVPAAARGCPGAAAAALWREAEAEAAAAGGEQEAQATAAAGEGDNGPGLQGPSREPPLADNLYDEDDDDEGEEEEEAAAAAIGYRDNLLFGDEIITNGFHSCESDEEDRASHASSSDWTPRPRIGPYTFVQQHLMIGTDPRTILKDLLPETIPPPELDDMTLWQIVINILSEPPKRKKRKDINTIEDAVKLLQECKKIIVLTGAGVSVSCGIPDFRSRDGIYARLAVDFPDLPDPQAMFDIEYFRKDPRPFFKFAKEIYPGQFQPSLCHKFIALSDKEGKLLRNYTQNIDTLEQVAGIQRIIQCHGSFATASCLICKYKVDCEAVRGDIFNQVVPRCPRCPADEPLAIMKPEIVFFGENLPEQFHRAMKYDKDEVDLLIVIGSSLKVRPVALIPSSIPHEVPQILINREPLPHLHFDVELLGDCDVIINELCHRLGGEYAKLCCNPVKLSEITEKPPRTQKELAYLSELPPTPLHVSEDSSSPERTSPPDSSVIVTLLDQAAKSNDDLDVSESKGCMEEKPQEVQTSRNVESIAEQMENPDLKNVGSSTGEKNERTSVAGTVRKCWPNRVAKEQISRRLDGNQYLFLPPNRYIFHGAEVYSDSEDDVLSSSSCGSNSDSGTCQSPSLEEPMEDESEIEEFYNGLEDEPDVPERAGGAGFGTDGDDQEAINEAISVKQEVTDMNYPSNKS
Km [1]: 23 µM
Km [2]: 33 µM
Km [3]: 4.0 µM
Km [4]: 7.1 µM
Km [5]: 13 µM
Km [6]: 110 µM
